Molecular target: Human DPP4 extracellular domain (residues 39-766) (human, UniProt P27487 39-766)
Assay: […], ~10 mg/ml in HBS

Human DPP4 extracellular domain (residues 39-766), sequence (P27487 39-766): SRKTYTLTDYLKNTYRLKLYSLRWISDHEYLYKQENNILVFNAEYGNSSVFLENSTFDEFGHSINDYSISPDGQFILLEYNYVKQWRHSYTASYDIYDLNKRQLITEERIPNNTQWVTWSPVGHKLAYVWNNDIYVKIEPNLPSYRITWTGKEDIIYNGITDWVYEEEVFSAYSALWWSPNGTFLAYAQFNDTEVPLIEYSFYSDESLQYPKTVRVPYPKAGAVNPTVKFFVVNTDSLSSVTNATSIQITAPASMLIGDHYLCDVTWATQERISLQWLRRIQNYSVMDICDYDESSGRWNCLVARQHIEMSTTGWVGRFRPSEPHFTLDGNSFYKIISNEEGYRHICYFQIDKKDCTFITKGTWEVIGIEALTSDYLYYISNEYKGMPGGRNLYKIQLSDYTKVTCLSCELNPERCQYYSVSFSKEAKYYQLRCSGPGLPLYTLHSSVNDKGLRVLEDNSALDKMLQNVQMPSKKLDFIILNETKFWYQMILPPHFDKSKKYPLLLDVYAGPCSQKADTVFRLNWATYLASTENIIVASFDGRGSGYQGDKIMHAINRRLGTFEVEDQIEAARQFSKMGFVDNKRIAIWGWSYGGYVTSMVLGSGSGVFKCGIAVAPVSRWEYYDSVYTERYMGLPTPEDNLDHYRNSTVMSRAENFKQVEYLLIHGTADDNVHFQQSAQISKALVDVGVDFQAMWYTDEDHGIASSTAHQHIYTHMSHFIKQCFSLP

B1: MERS-CoV RBD (E367 to Y606) (domain or fragment)
chain: EAKPSGSVVEQAEGVECDFSPLLSGTPPQVYNFKRLVFTNCNYNLTKLLSLFSVNDFTCSQISPAAIASNCYSSLILDYFSYPLSMKSDLSVSSAGPISQFNYKQSFSNPTCLILATVPHNLTTITKPLKYSYINKCSRFLSDDRTEVPQLVNANQYSPCVSIVPSTVWEDGDYYRKQLSPLEGGGWLVASGSTVAMTEQLQMGFGITVQYGTDTNSVCPKLEFANDTKIASQLGNCVEY
  binding result: binds

From paper PMC3731569 (Cell Research, 2013)
